{"source": "paper PMC6191937", "about": "(Cell, 2018)", "binders": {"B1": {"name": "TUT4 (natural protein)", "chain": "MEESKTLKSENHEPKKNVICEESKAVQVIGNQTLKARNDKSVKEIENSSPNRNSSKKNKQNDICIEKTEVKSCKVNAANLPGPKDLGLVLRDQSHCKAKKFPNSPVKAEKATISQAKSEKATSLQAKAEKSPKSPNSVKAEKASSYQMKSEKVPSSPAEAEKGPSLLLKDMRQKTELQQIGKKIPSSFTSVDKVNIEAVGGEKCALQNSPRSQKQQTCTDNTGDSDDSASGIEDVSDDLSKMKNDESNKENSSEMDYLENATVIDESALTPEQRLGLKQAEERLERDHIFRLEKRSPEYTNCRYLCKLCLIHIENIQGAHKHIKEKRHKKNILEKQEESELRSLPPPSPAHLAALSVAVIELAKEHGITDDDLRVRQEIVEEMSKVITTFLPECSLRLYGSSLTRFALKSSDVNIDIKFPPKMNHPDLLIKVLGILKKNVLYVDVESDFHAKVPVVVCRDRKSGLLCRVSAGNDMACLTTDLLTALGKIEPVFIPLVLAFRYWAKLCYIDSQTDGGIPSYCFALMVMFFLQQRKPPLLPCLLGSWIEGFDPKRMDDFQLKGIVEEKFVKWECNSSSATEKNSIAEENKAKADQPKDDTKKTETDNQSNAMKEKHGKSPLALETPNRVSLGQLWLELLKFYTLDFALEEYVICVRIQDILTRENKNWPKRRIAIEDPFSVKRNVARSLNSQLVYEYVVERFRAAYRYFACPQTKGGNKSTVDFKKREKGKISNKKPVKSNNMATNGCILLGETTEKINAEREQPVQCDEMDCTSQRCIIDNNNLLVNELDFADHGQDSSSLSTSKSSEIEPKLDKKQDDLAPSETCLKKELSQCNCIDLSKSPDPDKSTGTDCRSNLETESSHQSVCTDTSATSCNCKATEDASDLNDDDNLPTQELYYVFDKFILTSGKPPTIVCSICKKDGHSKNDCPEDFRKIDLKPLPPMTNRFREILDLVCKRCFDELSPPCSEQHNREQILIGLEKFIQKEYDEKARLCLFGSSKNGFGFRDSDLDICMTLEGHENAEKLNCKEIIENLAKILKRHPGLRNILPITTAKVPIVKFEHRRSGLEGDISLYNTLAQHNTRMLATYAAIDPRVQYLGYTMKVFAKRCDIGDASRGSLSSYAYILMVLYFLQQRKPPVIPVLQEIFDGKQIPQRMVDGWNAFFFDKTEELKKRLPSLGKNTESLGELWLGLLRFYTEEFDFKEYVISIRQKKLLTTFEKQWTSKCIAIEDPFDLNHNLGAGVSRKMTNFIMKAFINGRKLFGTPFYPLIGREAEYFFDSRVLTDGELAPNDRCCRVCGKIGHYMKDCPKRKSLLFRLKKKDSEEEKEGNEEEKDSRDVLDPRDLHDTRDFRDPRDLRCFICGDAGHVRRECPEVKLARQRNSSVAAAQLVRNLVNAQQVAGSAQQQGDQSIRTRQSSECSESPSYSPQPQPFPQNSSQSAAITQPSSQPGSQPKLGPPQQGAQPPHQVQMPLYNFPQSPPAQYSPMHNMGLLPMHPLQIPAPSWPIHGPVIHSAPGSAPSNIGLNDPSIIFAQPAARPVAIPNTSHDGHWPRTVAPNSLVNSGAVGNSEPGFRGLTPPIPWEHAPRPHFPLVPASWPYGLHQNFMHQGNARFQPNKPFYTQDRCATRRCRERCPHPPRGNVSE"}}, "molecular_target": "T1, EGFP-MOV10 (human, UniProt Q9HCE1 1-1003)", "T1 sequence": "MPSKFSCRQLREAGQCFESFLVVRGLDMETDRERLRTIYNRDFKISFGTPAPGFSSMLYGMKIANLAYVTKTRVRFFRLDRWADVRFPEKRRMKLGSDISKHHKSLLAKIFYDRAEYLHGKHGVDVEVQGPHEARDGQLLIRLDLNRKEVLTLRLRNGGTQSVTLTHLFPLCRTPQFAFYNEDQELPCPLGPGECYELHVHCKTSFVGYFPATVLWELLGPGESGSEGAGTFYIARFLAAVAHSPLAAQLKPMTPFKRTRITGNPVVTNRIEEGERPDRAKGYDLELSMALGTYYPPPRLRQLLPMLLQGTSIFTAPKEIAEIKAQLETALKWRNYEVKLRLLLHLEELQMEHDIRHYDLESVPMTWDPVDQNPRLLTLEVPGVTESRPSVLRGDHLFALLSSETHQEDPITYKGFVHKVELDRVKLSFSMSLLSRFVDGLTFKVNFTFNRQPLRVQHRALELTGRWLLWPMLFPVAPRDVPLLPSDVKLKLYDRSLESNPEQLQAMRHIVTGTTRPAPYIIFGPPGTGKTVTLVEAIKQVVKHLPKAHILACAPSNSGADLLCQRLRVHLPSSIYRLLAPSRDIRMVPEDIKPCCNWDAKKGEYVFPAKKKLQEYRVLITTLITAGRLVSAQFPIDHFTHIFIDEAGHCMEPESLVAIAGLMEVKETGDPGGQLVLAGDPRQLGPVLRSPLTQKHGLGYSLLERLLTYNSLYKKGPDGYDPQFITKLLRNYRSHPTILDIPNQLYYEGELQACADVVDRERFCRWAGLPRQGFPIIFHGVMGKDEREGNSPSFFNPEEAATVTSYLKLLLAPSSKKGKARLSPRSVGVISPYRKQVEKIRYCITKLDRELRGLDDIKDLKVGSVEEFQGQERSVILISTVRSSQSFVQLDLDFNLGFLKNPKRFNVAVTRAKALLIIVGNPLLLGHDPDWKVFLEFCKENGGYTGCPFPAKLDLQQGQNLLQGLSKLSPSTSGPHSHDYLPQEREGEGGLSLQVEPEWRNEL", "experiment": "co-IP"}
{"binder": "B1", "values": [{"measurement": "fold enrichment in the co-IP relative to TUT7", "value": "~10", "unit": "fold"}]}
